Consider 4 molecules from patent US20240261333A1, “NOVEL TARGETS FOR ENHANCING ANTI-TUMOR IMMUNITY” (THE BROAD INSTITUTE, INC., priority 2021, published 2024).

The experiment deals with T1, B3GNT2 (Homo sapiens, UniProt Q9NY97).
T1 construct: The respective ORFs of candidate genes [CD274 (NM_014143), MCL1 (NM_021960), JUNB (NM_002229), and B3GNT2 (NM_006577)] were synthesized; expressed in transfected cells; host or cells: A375 melanoma cells (lentiviral ORF overexpression)
T1 sequence (Q9NY97 1-397): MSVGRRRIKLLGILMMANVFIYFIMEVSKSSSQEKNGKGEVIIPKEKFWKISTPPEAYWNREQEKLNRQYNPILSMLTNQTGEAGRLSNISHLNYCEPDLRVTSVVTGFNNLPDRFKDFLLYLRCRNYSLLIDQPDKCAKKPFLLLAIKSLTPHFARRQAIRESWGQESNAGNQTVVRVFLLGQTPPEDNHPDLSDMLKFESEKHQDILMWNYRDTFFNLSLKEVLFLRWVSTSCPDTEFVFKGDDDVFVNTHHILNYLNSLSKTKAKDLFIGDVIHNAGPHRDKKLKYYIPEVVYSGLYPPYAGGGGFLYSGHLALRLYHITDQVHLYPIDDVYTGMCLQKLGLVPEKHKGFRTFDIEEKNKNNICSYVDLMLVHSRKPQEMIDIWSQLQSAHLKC
As to the kind of experiment: Co-IP of FLAG-tagged B3GNT2 followed by mass spectrometry. The class given is cell-based. Details: C-term IgG / C-term flag: unit not given here. The note with it: Co-IP followed by mass spectrometry of B3GNT2; for C-term flag / C-term IgG: C-term tag; for C-term flag / N-term FLAG: FLAG pull-down; for C-term IgG / N-term IgG: IgG pull-down; for N-term FLAG / N-term IgG: N-term tag. The method, boiled down:
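Co-purifying proteins were identified by fractionated nano-LC–MS/MS on an Orbitrap Elite, run data-dependent. Beforehand, lysates in 1% Triton X-100/HEPES buffer were incubated overnight at 4° C with anti-FLAG or […] and pulled down on Protein A/G magnetic beads for 4 h. Duplicate biological replicates.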

B1: SAMM50 (protein)
chain: MGTVHARSLEPLPSSGPDFGGLGEEAEFVEVEPEAKQEILENKDVVVQHVHFDGLGRTKDDIIICEIGDVFKAKNLIEVMRKSHEAREKLLRLGIFRQVDVLIDTCQGDDALPNGLDVTFEVTELRRLTGSYNTMVGNNEGSMVLGLKLPNLLGRAEKVTFQFSYGTKETSYGLSFFKPRPGNFERNFSVNLYKVTGQFPWSSLRETDRGMSAEYSFPIWKTSHTVKWEGVWRELGCLSRTASFAVRKESGHSLKSSLSHAMVIDSRNSSILPRRGALLKVNQELAGYTGGDVSFIKEDFELQLNKQLIFDSVFSASFWGGMLVPIGDKPSSIADRFYLGGPTSIRGFSMHSIGPQSEGDYLGGEAYWAGGLHLYTPLPFRPGQGGFGELFRTHFFLNAGNLCNLNYGEGPKAHIRKLAECIRWSYGAGIVLRLGNIARLELNYCVPMGVQTGDRICDGVQFGAGIRFL
Turning to B1, the C-term flag came to 0, the “C-term IgG” value amounted to 0, the “N-term FLAG” value worked out at 3 and the “N-term IgG” value was determined as 0.

B2: GGCT (protein)
chain: MANSGCKDVTGPDEESFLYFAYGSNLLTERIHLRNPSAAFFCVARLQDFKLDFGNSQGKTSQTWHGGIATIFQSPGDEVWGVVWKMNKSNLNSLDEQEGVKSGMYVVIEVKVATQEGKEITCRSYLMTNYESAPPSPQYKKIICMGAKENGLPLEYQEKLKAIEPNDYTGKVSEEIEDIIKKGETQTL
On to B2, for which the C-term flag turned out to be 0, the “C-term IgG” value was determined as 0, the “N-term FLAG” value is listed as 3 and the “N-term IgG” value is 0.

B3: NUFIP2 (protein)
chain: MEEKPGQPQPQHHHSHHHPHHHPQQQQQQPHHHHHYYFYNHSHNHHHHHHHQQPHQYLQHGAEGSPKAQPKPLKHEQKHTLQQHQETPKKKTGYGELNGNAGEREISLKNLSSDEATNPISRVLNGNQQVVDTSLKQTVKANTFGKAGIKTKNFIQKNSMDKKNGKSYENKSGENQSVDKSDTIPIPNGVVTNNSGYITNGYMGKGADNDGSGSESGYTTPKKRKARRNSAKGCENLNIVQDKIMQQETSVPTLKQGLETFKPDYSEQKGNRVDGSKPIWKYETGPGGTSRGKPAVGDMLRKSSDSKPGVSSKKFDDRPKGKHASAVASKEDSWTLFKPPPVFPVDNSSAKIVPKISYASKVKENLNKTIQNSSVSPTSSSSSSSSTGETQTQSSSRLSQVPMSALKSVTSANFSNGPVLAGTDGNVYPPGGQPLLTTAANTLTPISSGTDSVLQDMSLTSAAVEQIKTSLFIYPSNMQTMLLSTAQVDLPSQTDQQNLGDIFQNQWGLSFINEPSAGPETVTGKSSEHKVMEVTFQGEYPATLVSQGAEIIPSGTEHPVFPKAYELEKRTSPQVLGSILKSGTTSESGALSLEPSHIGDLQKADTSSQGALVFLSKDYEIESQNPLASPTNTLLGSAKEQRYQRGLERNDSWGSFDLRAAIVYHTKEMESIWNLQKQDPKRIITYNEAMDSPDQ
With B3, the C-term flag is 5, the “C-term IgG” value was 4, the “N-term FLAG” value stood at 3 and the “N-term IgG” value was 3.

B4: DDX5 (protein)
chain: MSGYSSDRDRGRDRGFGAPRFGGSRAGPLSGKKFGNPGEKLVKKKWNLDELPKFEKNFYQEHPDLARRTAQEVETYRRSKEITVRGHNCPKPVLNFYEANFPANVMDVIARQNFTEPTAIQAQGWPVALSGLDMVGVAQTGSGKTLSYLLPAIVHINHQPFLERGDGPICLVLAPTRELAQQVQQVAAEYCRACRLKSTCIYGGAPKGPQIRDLERGVEICIATPGRLIDFLECGKTNLRRTTYLVLDEADRMLDMGFEPQIRKIVDQIRPDRQTLMWSATWPKEVRQLAEDFLKDYIHINIGALELSANHNILQIVDVCHDVEKDEKLIRLMEEIMSEKENKTIVFVETKRRCDELTRKMRRDGWPAMGIHGDKSQQERDWVLNEFKHGKAPILIATDVASRGLDVEDVKFVINYDYPNSSEDYIHRIGRTARSTKTGTAYTFFTPNNIKQVSDLISVLREANQAINPKLLQLVEDRGSGRSRGRGGMKDDRRDRYSAGKRGGFNTFRDRENYDRGYSSLLKRDFGAKTQNGVYSAANYTNGSFGSNFVSAGIQTSFRTGNPTGTYQNGYDSTQQYGSNVPNMHNGMNQQAYAYPATAAAPMIGYPMPTGYSQ
In the case of B4, the C-term flag is on record as 22, the “C-term IgG” value is reported as 16, the “N-term FLAG” value worked out at 16 and the “N-term IgG” value was determined as 18.
